Values belong to the molecule of their own block, whether it stands above or below them. Starred links: 1 amine or outer side, 2 acyl side, 3 side chain; linkers in the order of their positions; H or OH if unused. Non-standard residues stand in square brackets, D forms with d. Primed or numbered codes have the meaning given here. No end group written: not given here. *: point of attachment. Tyr(Me) = O-methyltyrosine, COc1ccc(C[C@H](N[*:1])C(=O)[*:2])cc1; Thr(Me) = O-methylthreonine, CO[C@H](C)[C@H](N[*:1])C(=O)[*:2]; Ala(piperidin-4-yl) = O=C([C@H](CC1CCN([*:3])CC1)N[*:1])[*:2]; Ser(Me)″ = O-methylserine, COC[C@H](N[*:1])C(=O)[*:2]; Phe(4-F) = N[C@@H](Cc1ccc(F)cc1)C(=O)O; 2Nal = N[C@@H](Cc1ccc2ccccc2c1)C(=O)O; Amidino = amidino group, N=C(N)*; Cha = N[C@@H](CC1CCCCC1)C(=O)O; 4Amb = NCc1ccc(C(=O)O)cc1; Nva = CCC[C@H](N)C(=O)O; 2Abz = Nc1ccccc1C(=O)O; Dap = NC[C@H](N)C(=O)O; Aib = CC(C)(N)C(=O)O; Inp = O=C(O)C1CCNCC1; Bz = O=C(c1ccccc1)*
Legend:
[1] = target: human Y2 receptor (human) (UniProt P49146); assay: cell-based or functional assay
[2] = target: human Y2 receptor (human) (UniProt P49146); assay: RBA: [125I]-PYY displacement, hY2R/CHO membranes
[3] = target: T1, human Y2 receptor (human, UniProt P49146 1-381); assay: RBA: [125I]-PYY displacement, hY2R/CHO membranes
T1 construct: whole, on cells; used as membrane fraction of hY2R/CHO cells; also called human NPY2R; hY2R
T1 sequence (looked up): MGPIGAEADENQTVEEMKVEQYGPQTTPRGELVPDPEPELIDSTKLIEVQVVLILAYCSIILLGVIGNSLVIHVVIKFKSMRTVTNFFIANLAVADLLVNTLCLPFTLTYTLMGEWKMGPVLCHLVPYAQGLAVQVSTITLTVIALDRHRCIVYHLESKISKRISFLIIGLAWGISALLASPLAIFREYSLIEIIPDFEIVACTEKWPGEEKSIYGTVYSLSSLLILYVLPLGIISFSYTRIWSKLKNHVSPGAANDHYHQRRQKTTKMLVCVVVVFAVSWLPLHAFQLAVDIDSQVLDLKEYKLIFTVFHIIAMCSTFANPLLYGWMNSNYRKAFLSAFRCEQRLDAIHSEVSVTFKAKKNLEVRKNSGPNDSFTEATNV
How it was run: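 Bound radioligand was collected by filtration on PEI-treated GF/C filters, washed with Tris/MgCl₂/NaCl/CHAPS buffer pH 7.4, and counted by scintillation; IC₅₀ values were calculated.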

[4] = target: T1, human Y2 receptor; assay: cell-based or functional assay

Molecule: Ac-[Ala26, Ile28,31, Arg(Me)35]-PYY(22-36) (peptide)
GBA EC50 Ratio (vs PYY(3-36)), [35S]GTPγS [1]: 13
IC50 Ratio (vs PYY(3-36)) [2]: 50

B4: 4-Aminomethylbenzoyl-[Ala26, Ile28,31, Nal(2)30]-PYY(25-36) (peptide)
peptide: [4Amb]RAYIN[2Nal]ITRQRY-NH2
modifications: N-terminus assumed
SMILES: CC[C@H](C)[C@H](NC(=O)[C@H](Cc1ccc(O)cc1)NC(=O)[C@H](C)NC(=O)[C@H](CCCNC(=N)N)NC(=O)c1ccc(CN)cc1)C(=O)N[C@@H](CC(N)=O)C(=O)N[C@@H](Cc1ccc2ccccc2c1)C(=O)N[C@H](C(=O)N[C@H](C(=O)N[C@@H](CCCNC(=N)N)C(=O)N[C@@H](CCC(N)=O)C(=O)N[C@@H](CCCNC(=N)N)C(=O)N[C@@H](Cc1ccc(O)cc1)C(N)=O)[C@@H](C)O)[C@@H](C)CC
notes: also called compound No. 56
IC50 Ratio (vs PYY(3-36)) [3]: 4.1 ratio
GBA EC50 Ratio (vs PYY(3-36)), [35S]GTPγS [4]: 2.4 ratio

B5: 4-Aminomethylbenzoyl-[Ala26, Ile28,31, Phe(4F)30]-PYY(25-36) (peptide)
peptide: [4Amb]RAYIN[Phe(4-F)]ITRQRY-NH2
modifications: N-terminus assumed
SMILES: CC[C@H](C)[C@H](NC(=O)[C@H](Cc1ccc(O)cc1)NC(=O)[C@H](C)NC(=O)[C@H](CCCNC(=N)N)NC(=O)c1ccc(CN)cc1)C(=O)N[C@@H](CC(N)=O)C(=O)N[C@@H](Cc1ccc(F)cc1)C(=O)N[C@H](C(=O)N[C@H](C(=O)N[C@@H](CCCNC(=N)N)C(=O)N[C@@H](CCC(N)=O)C(=O)N[C@@H](CCCNC(=N)N)C(=O)N[C@@H](Cc1ccc(O)cc1)C(N)=O)[C@@H](C)O)[C@@H](C)CC
notes: also called compound No. 58
IC50 Ratio (vs PYY(3-36)) [3]: 4.1 ratio
GBA EC50 Ratio (vs PYY(3-36)), [35S]GTPγS [4]: 2.9 ratio

B7: 4-Aminomethylbenzoyl-[Ala26, Ile28,31, Nva32]-PYY(25-36) (peptide)
peptide: [4Amb]RAYINLI[Nva]RQRY-NH2
modifications: N-terminus assumed
SMILES: CCC[C@H](NC(=O)[C@@H](NC(=O)[C@H](CC(C)C)NC(=O)[C@H](CC(N)=O)NC(=O)[C@@H](NC(=O)[C@H](Cc1ccc(O)cc1)NC(=O)[C@H](C)NC(=O)[C@H](CCCNC(=N)N)NC(=O)c1ccc(CN)cc1)[C@@H](C)CC)[C@@H](C)CC)C(=O)N[C@@H](CCCNC(=N)N)C(=O)N[C@@H](CCC(N)=O)C(=O)N[C@@H](CCCNC(=N)N)C(=O)N[C@@H](Cc1ccc(O)cc1)C(N)=O
notes: also called compound No. 61
IC50 Ratio (vs PYY(3-36)) [3]: 29 ratio
GBA EC50 Ratio (vs PYY(3-36)), [35S]GTPγS [4]: 17 ratio

B8: 4-Aminomethylbenzoyl-[Ala26, Ile28,31, Thr(Me)32]-PYY(25-36) (peptide)
peptide: Bz-RAYINLI[Thr(Me)]RQRY-NH2
notes: also called compound No. 74
IC50 Ratio (vs PYY(3-36)) [3]: 14 ratio
GBA EC50 Ratio (vs PYY(3-36)), [35S]GTPγS [4]: 24 ratio

B11: [Abz(2)24, Cha27,36, Ile28,31, Trp30]-PYY(24-36) (peptide)
peptide: [2Abz]RH[Cha]INWITRQR[Cha]-NH2
modifications: N-terminus assumed
SMILES: CC[C@H](C)[C@H](NC(=O)[C@H](CC1CCCCC1)NC(=O)[C@H](Cc1c[nH]cn1)NC(=O)[C@H](CCCNC(=N)N)NC(=O)c1ccccc1N)C(=O)N[C@@H](CC(N)=O)C(=O)N[C@@H](Cc1c[nH]c2ccccc12)C(=O)N[C@H](C(=O)N[C@H](C(=O)N[C@@H](CCCNC(=N)N)C(=O)N[C@@H](CCC(N)=O)C(=O)N[C@@H](CCCNC(=N)N)C(=O)N[C@@H](CC1CCCCC1)C(N)=O)[C@@H](C)O)[C@@H](C)CC
notes: also called compound No. 68
IC50 Ratio (vs PYY(3-36)) [3]: 19 ratio
GBA EC50 Ratio (vs PYY(3-36)), [35S]GTPγS [4]: 15 ratio

Further lines, results first:

IC50 Ratio (vs PYY(3-36)) [3]: 15 ratio
GBA EC50 Ratio (vs PYY(3-36)), [35S]GTPγS [4]: 16 ratio
B1: Benzoyl-[Cha27,36, Ile28, Arg31]-PYY(25-36) (peptide)
peptide: Bz-RH[Cha]INLRTRQR[Cha]-NH2
SMILES: CC[C@H](C)[C@H](NC(=O)[C@H](CC1CCCCC1)NC(=O)[C@H](Cc1c[nH]cn1)NC(=O)[C@H](CCCNC(=N)N)NC(=O)c1ccccc1)C(=O)N[C@@H](CC(N)=O)C(=O)N[C@@H](CC(C)C)C(=O)N[C@@H](CCCNC(=N)N)C(=O)N[C@H](C(=O)N[C@@H](CCCNC(=N)N)C(=O)N[C@@H](CCC(N)=O)C(=O)N[C@@H](CCCNC(=N)N)C(=O)N[C@@H](CC1CCCCC1)C(N)=O)[C@@H](C)O
notes: also called compound No. 65

IC50 Ratio (vs PYY(3-36)) [3]: 1.9 ratio
GBA EC50 Ratio (vs PYY(3-36)), [35S]GTPγS [4]: 1.1 ratio
B2: Amidino-[Gly23, Pic(4)24, Cha27,36, Ile 28,31, Trp30]-PYY(23-36) (peptide)
peptide: Amidino-G[Inp]RH[Cha]INWITRQR[Cha]-NH2
SMILES: CC[C@H](C)[C@H](NC(=O)[C@H](CC1CCCCC1)NC(=O)[C@H](Cc1c[nH]cn1)NC(=O)[C@H](CCCNC(=N)N)NC(=O)C1CCN(C(=O)CNC(=N)N)CC1)C(=O)N[C@@H](CC(N)=O)C(=O)N[C@@H](Cc1c[nH]c2ccccc12)C(=O)N[C@H](C(=O)N[C@H](C(=O)N[C@@H](CCCNC(=N)N)C(=O)N[C@@H](CCC(N)=O)C(=O)N[C@@H](CCCNC(=N)N)C(=O)N[C@@H](CC1CCCCC1)C(N)=O)[C@@H](C)O)[C@@H](C)CC
notes: also called compound No. 96

GBA EC50 Ratio (vs PYY(3-36)), [35S]GTPγS [1]: 8.7
IC50 Ratio (vs PYY(3-36)) [2]: 18
B3: Benzoyl-[Ser(Me)26, Cha27,28,36, Aib31]-PYY(25-36) (peptide)
peptide: Bz-R[Ser(Me)″][Cha][Cha]NL[Aib]TRQR[Cha]-NH2
SMILES: COC[C@H](NC(=O)[C@H](CCCNC(=N)N)NC(=O)c1ccccc1)C(=O)N[C@@H](CC1CCCCC1)C(=O)N[C@@H](CC1CCCCC1)C(=O)N[C@@H](CC(N)=O)C(=O)N[C@@H](CC(C)C)C(=O)NC(C)(C)C(=O)N[C@H](C(=O)N[C@@H](CCCNC(=N)N)C(=O)N[C@@H](CCC(N)=O)C(=O)N[C@@H](CCCNC(=N)N)C(=O)N[C@@H](CC1CCCCC1)C(N)=O)[C@@H](C)O

IC50 Ratio (vs PYY(3-36)) [3]: 5 ratio
GBA EC50 Ratio (vs PYY(3-36)), [35S]GTPγS [4]: 4.7 ratio
B6: 4-Aminomethylbenzoyl-[Ala26, Ile28,31, Tyr(Me)36]-PYY(25-36) (peptide)
peptide: [4Amb]RAYINLITRQR[Tyr(Me)]-NH2
modifications: N-terminus assumed
SMILES: CC[C@H](C)[C@H](NC(=O)[C@H](Cc1ccc(O)cc1)NC(=O)[C@H](C)NC(=O)[C@H](CCCNC(=N)N)NC(=O)c1ccc(CN)cc1)C(=O)N[C@@H](CC(N)=O)C(=O)N[C@@H](CC(C)C)C(=O)N[C@H](C(=O)N[C@H](C(=O)N[C@@H](CCCNC(=N)N)C(=O)N[C@@H](CCC(N)=O)C(=O)N[C@@H](CCCNC(=N)N)C(=O)N[C@@H](Cc1ccc(OC)cc1)C(N)=O)[C@@H](C)O)[C@@H](C)CC
notes: also called compound No. 7

IC50 Ratio (vs PYY(3-36)) [3]: 4.8 ratio
GBA EC50 Ratio (vs PYY(3-36)), [35S]GTPγS [4]: 2.9 ratio
B9: Benzoyl-[Ala(4Pip)27, Ile28,31, Trp30, Cha36]-PYY(25-36) (peptide)
peptide: Bz-RH[Ala(piperidin-4-yl)]INWITRQR[Cha]-NH2
modifications: also: Ala(4Pip) D or L form not assigned (later peak)
notes: Ala(4Pip) is any of D-form and L-form; also called compound No. 66

IC50 Ratio (vs PYY(3-36)) [3]: 9.8 ratio
GBA EC50 Ratio (vs PYY(3-36)), [35S]GTPγS [4]: 8.1 ratio
B10: Ac-[Ala26, Ile28,31]-PYY(20-36) (peptide)
peptide: Ac-YYASLRAYINLITRQRY-NH2
notes: also called compound No. 5

IC50 Ratio (vs PYY(3-36)) [3]: 34 ratio
GBA EC50 Ratio (vs PYY(3-36)), [35S]GTPγS [4]: 22 ratio
B12: Benzoyl-[Dap27, Ile28,31, Trp30, Cha36]-PYY(25-36) (peptide)
peptide: Bz-RH[Dap]INWITRQR[Cha]-NH2
SMILES: CC[C@H](C)[C@H](NC(=O)[C@H](CN)NC(=O)[C@H](Cc1c[nH]cn1)NC(=O)[C@H](CCCNC(=N)N)NC(=O)c1ccccc1)C(=O)N[C@@H](CC(N)=O)C(=O)N[C@@H](Cc1c[nH]c2ccccc12)C(=O)N[C@H](C(=O)N[C@H](C(=O)N[C@@H](CCCNC(=N)N)C(=O)N[C@@H](CCC(N)=O)C(=O)N[C@@H](CCCNC(=N)N)C(=O)N[C@@H](CC1CCCCC1)C(N)=O)[C@@H](C)O)[C@@H](C)CC
notes: also called compound No. 67

— patent publication US20120172293A1 (Takeda / Millennium, published 2012)
